Measurements taken from US20160009772A1 (published 2016).
Primed or numbered codes have the meaning given here. FITC′ = fluorescein isothiocyanate; Ahx = NCCCCCC(=O)O

Target: N-terminal His (six histadine)-tagged IRF5 (222-425) SEQ ID NO 22 (UniProt Q13568 222-425)
Test: TR-FRET

Chain of N-terminal His (six histadine)-tagged IRF5 (222-425) SEQ ID NO 22 (Q13568 other isoform, or with tags, fused parts or gaps): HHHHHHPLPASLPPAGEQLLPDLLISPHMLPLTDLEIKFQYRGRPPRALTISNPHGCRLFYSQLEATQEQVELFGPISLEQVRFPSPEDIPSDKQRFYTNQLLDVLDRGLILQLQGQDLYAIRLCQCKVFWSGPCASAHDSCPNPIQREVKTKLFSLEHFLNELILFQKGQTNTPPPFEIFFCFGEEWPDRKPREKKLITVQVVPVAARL

Binder	Kd [nM]
{FITC′-Ahx}-MIILIISFPKHKDWKVILVK-NH2 [FITC-Aha-MIILIISFPKHKDWKVILVK-NH2 (SEQ ID NO: 17)]	530
{FITC′-Ahx}-IRLQISNPYLKFIPLKRAIWLIK-NH2 [FITC-Aha-IRLQISNPYLKFIPLKRAIWLIK-NH2 (SEQ ID NO: 16)]	930
